Measured values as given in US20250236878A1 (priority 2019, published 2025).

Tests used:
[1] = system: Cladosporium cladosporioides; format: in vivo
[2] = system: Citrus trees infected with Candidatus Liberibacter asiaticus; format: in vivo, Citrus x paradisi; settings: […], trunk injection
[3] = system: Citrus trees infected with CLas; design: species or system Citrus sinesis; settings: in vivo
[4] = system: Citrus trees infected with CLas; experiment: Recovery composition trunk injection: 'Valencia' orange fruit yield (Examples 3, 19); format: in vivo, Citrus sinesis

B1: SEQ ID NO: 772: β-1,3 endoglucanase, Cellulosimicrobium cellulans DK1 (protein)
chain: APGDLLWSDEFDGAAGSAPNPAVWNHETGAHGWGNAELQNYTASRANSALDGQGNLVITARREGDGSYTSARMTTQGKYQPQYGRIEARIQIPRGQGIWPAFWMLGGSFPGTPWPSSGEIDIMENVGFEPHRVHGTVHGPGYSGGSGITGMYQHPQGWSFADTFHTFAVDWKPGEITWFVDGQQFHRVTRASVGANAWVFDQPFFLILNVAVGGQWPGYPDGTTQLPQQMKVDYVRVYDNGSGSSNPGNPGTGLPTGTGAVRAANGMCIDVPWADPTDGNPVQIVTCSGNAAQTWTRGSDGTVRALGKCLDVRDGSTTRGAAVQVWTCNGTGAQKWAYDAGSKALRNPQSGLCLDATGGAPLHDGQRLQTWTCNGTTAQQWTL
modifications: Cellulosimicrobium cellulans strain DK-1
notes: β-1,3 endoglucanase, Cellulosimicrobium cellulans DK1
B1 was tested, and the “mold growth compared to the surfactant control treatment” value ([1]; in vivo) was 85%.

B2: β-1,3-endoglucanase (DK-1) Cellulosimicrobium cellulans (SEQ ID NO: 772) (protein)
chain: APGDLLWSDEFDGAAGSAPNPAVWNHETGAHGWGNAELQNYTASRANSALDGQGNLVITARREGDGSYTSARMTTQGKYQPQYGRIEARIQIPRGQGIWPAFWMLGGSFPGTPWPSSGEIDIMENVGFEPHRVHGTVHGPGYSGGSGITGMYQHPQGWSFADTFHTFAVDWKPGEITWFVDGQQFHRVTRASVGANAWVFDQPFFLILNVAVGGQWPGYPDGTTQLPQQMKVDYVRVYDNGSGSSNPGNPGTGLPTGTGAVRAANGMCIDVPWADPTDGNPVQIVTCSGNAAQTWTRGSDGTVRALGKCLDVRDGSTTRGAAVQVWTCNGTGAQKWAYDAGSKALRNPQSGLCLDATGGAPLHDGQRLQTWTCNGTTAQQWTL
modifications: Cellulosimicrobium cellulans strain DK-1
In the case of B2, the “Observed mold growth spots (out of 18 inoculated)” value (shortened to “Observed mold growth spots”) ([1]; 6 days) is reported as 12 spots (out of 18 inoculated) and the “Percent of mold growth relative to control (mold only)” value ([1]; 6 days) is reported as 85%.

B3: SEQ ID NO: 731: callose-degrading β-1,3-endoglucanase from barley (Hordeum vulgare) (protein)
chain: GVCYGVIGNNLPSRSDVVQLYRSKGINGMRIYFADGQALSALRNSGIGLILDIGNDQLANIAASTSNAASWVQNNVRPYYPAVNIKYIAAGNEVQGGATQSILPAMRNLNAALSAAGLGAIKVSTSIRFDEVANSFPPSAGVFKNAYMTDVARLLASTGAPLLANVYPYFAYRDNPGSISLNYATFQPGTTVRDQNNGLTYTSLFDAMVDAVYAALEKAGAPAVKVVVSESGWPSAGGFAASAGNARTYNQGLINHVGGGTPKKREALETYIFAMFNENQKTGDATERSFGLFNPDKSPAYNIQF
modifications: Hordeum vulgare
With B3 the “increased yield compared to the untreated control” value ([2]; harvested 20 months post-treatment) was 4.1 kg per tree, the “fruit size and ^oBrixc to Citric Acid ratio (Brix:CA) relative to the untreated control” value [3] was “increased” and the “increased yield compared to the untreated control” value ([4]; 'Valencia' trees, trunk injection) was 14.5 kg per tree. For the same molecule, the “yield, average relative to control” value ([4]; 'Valencia', combined average of 2 sites (Table 56)) was 124%.

B4: β-1,3-Endoglucanase from Barley (SEQ ID NO: 731) (protein)
chain: GVCYGVIGNNLPSRSDVVQLYRSKGINGMRIYFADGQALSALRNSGIGLILDIGNDQLANIAASTSNAASWVQNNVRPYYPAVNIKYIAAGNEVQGGATQSILPAMRNLNAALSAAGLGAIKVSTSIRFDEVANSFPPSAGVFKNAYMTDVARLLASTGAPLLANVYPYFAYRDNPGSISLNYATFQPGTTVRDQNNGLTYTSLFDAMVDAVYAALEKAGAPAVKVVVSESGWPSAGGFAASAGNARTYNQGLINHVGGGTPKKREALETYIFAMFNENQKTGDATERSFGLFNPDKSPAYNIQF
modifications: Hordeum vulgare
For B4, the “Average Yield (kg per tree)” value ([2]; harvested 20 months post-treatment, Bt.4Q7Flg22 0.33 mg/tree, endoglucanase 2600 U/tree, mixture 660 U + 660 U + 0.27 mg/tree) was 38.7 kg per tree and the “Average Yield (kg per tree) Relative to Untreated” value ([2]; untreated = 34.6) was “(112%)”.

B5: Endochitinase (ChiC) Bacillus thuringiensis immobilized enzyme (SEQ ID NO: 777) (protein, listed as Bacillus thuringiensis)
chain: DSPKQSQKIVGYFPSWGVYGRNYQVADIDASKLTHLNYAFADICWKGKHGNPSTHPDNPNKQTWNCKESGVPLQNKEVPNGTLVLGEPWADVTKSYPGSGTTWEDCDKYARCGNFGELKRLKAKYPHLKTIISVGGWTWSNRFSDMAADEKTRKVFAESTVAFLRAYGFDGVDLDWEYPGVETIPGGSYRPEDKQNFTLLLQDVRNALNKAGAEDGKQYLLTIASGASQRYADHTELKKISQILDWINIMTYDFHGGWEATSNHNAALYKDPNDPAANTNFYVDGAIDVYTNEGVPVDKLVLGVPFYGRGWKSCGKENNGQYQPCKPGSDGKLASKGTWDDYSTGDTGVYDYGDLTANYVNKNGFVRYWNDTAKVPYLYNATTGTFISYDDNESMKYKTDYIKTKGLSGAMFWELSGDCRTSPKYSCSGPKLLDTLVKELLGGPINQKDTEPPTNVKNIIVTNKTSSSVQLSWTASTDNVGVTEYEITAGEEKWSATTNSITIKNLKPNTEYTFSVIAKDASGNKSHPTALTVKTDEANTTPPDGNGTATFSVTSNWGSGYNFSIIIKNNGTIPIKNWKLEFDYSGNLTQVWDSKISSKTNNHYVITNAGWNGEIPPGGSITIGGAGTGNPAELLNAVISEN
modifications: immobilized
B5 was tested, and the “Observed mold growth spots” value ([1]; 6 days) was 15 spots (out of 18 inoculated) and the “Percent of mold growth relative to surfactant only control” value ([1]; 6 days) was 83%.

B6: SEQ ID NO: 732: β-1,3 endoglucanase, Paenibacillus species (protein)
chain: AETAGTTITSMSYFSTADGPIITKSGVGQASYGFVMPIFNGGSATWNDVAQDLGVKVKVNGSWVDIDSVSSFVYNQNWGHWNDGGFTGYWFTLSATTEIQLYSKANEVTLEYSLVFQNINKTTITAMTPTQGPQITAGFTGGAGFTYPIFNHDPAITYAAVADDLKVYVKPVNSSQWIDIDNNAASGWIYDQNFGQFTDGGGGYWFNVTESINVKLESKTSSTNIVYTISFNEPVRNSYVLTPYEGTTFTADASGAIGIPLPKIDGGAPIGTELGNFVYQININGQWVDLDNSSQSGFVYSANGYNNMSAANQWGYWADHIYGLWFQPIQVDMQIRIGYPLNGQAGGSVGSNFVNYTLIGNPDAPRPDVNDQEDIPIGTPNDSAIEGMNLIWQDEFNGTALDQSKWNYETGYYLNDDPNTWGWGNSELQHYTDRAQNVFVQDGKLNIKALNEPKSFPQDPSRYAQYSSGKINTKDHFSLKYGRVDFRAKLPTGNGIWPALWMLPQDNVYGTWASSGEIDVMEAKGRLPGSTSGAVHFGGQWPTNRYLSGEYHFPEGQTFANDYHVYSVVWEEDNIKWYVDGKFFFKVTRDQWYSAAAPNNPNAPFDQPFYLIMNLAIGGTFDGGRTPDPSDIPATMQVDYVRVYKEGEGGGQNPGNVPVTGVTVNPTTAQVEVGQSVQLNASVAPSNATNKQVTWSVSGSSIASVSPNGLVTGLAQGTTTVTATTADGNKAASATITVAPAPSTVIVIGDEVKGLKKIGDDLLFYVNGATFADLHYKVNNGGQLNVAMAPTGNGNYTYPVHNLKHGDTVEYFFTYNPGQGALDTPWQTYVHGVTQGTPE
modifications: Paenibacillus spp.
notes: β-1,3 endoglucanase, Paenibacillus species
For B6, the “mold growth relative to the surfactant only control” value ([1]; in vivo) was 61%.

B7: β-1,3-endoglucanase (bglH) Paenibacillus immobilized enzyme (SEQ ID NO: 732) (protein)
chain: AETAGTTITSMSYFSTADGPIITKSGVGQASYGFVMPIFNGGSATWNDVAQDLGVKVKVNGSWVDIDSVSSFVYNQNWGHWNDGGFTGYWFTLSATTEIQLYSKANEVTLEYSLVFQNINKTTITAMTPTQGPQITAGFTGGAGFTYPIFNHDPAITYAAVADDLKVYVKPVNSSQWIDIDNNAASGWIYDQNFGQFTDGGGGYWFNVTESINVKLESKTSSTNIVYTISFNEPVRNSYVLTPYEGTTFTADASGAIGIPLPKIDGGAPIGTELGNFVYQININGQWVDLDNSSQSGFVYSANGYNNMSAANQWGYWADHIYGLWFQPIQVDMQIRIGYPLNGQAGGSVGSNFVNYTLIGNPDAPRPDVNDQEDIPIGTPNDSAIEGMNLIWQDEFNGTALDQSKWNYETGYYLNDDPNTWGWGNSELQHYTDRAQNVFVQDGKLNIKALNEPKSFPQDPSRYAQYSSGKINTKDHFSLKYGRVDFRAKLPTGNGIWPALWMLPQDNVYGTWASSGEIDVMEAKGRLPGSTSGAVHFGGQWPTNRYLSGEYHFPEGQTFANDYHVYSVVWEEDNIKWYVDGKFFFKVTRDQWYSAAAPNNPNAPFDQPFYLIMNLAIGGTFDGGRTPDPSDIPATMQVDYVRVYKEGEGGGQNPGNVPVTGVTVNPTTAQVEVGQSVQLNASVAPSNATNKQVTWSVSGSSIASVSPNGLVTGLAQGTTTVTATTADGNKAASATITVAPAPSTVIVIGDEVKGLKKIGDDLLFYVNGATFADLHYKVNNGGQLNVAMAPTGNGNYTYPVHNLKHGDTVEYFFTYNPGQGALDTPWQTYVHGVTQGTPE
modifications: immobilized; Paenibacillus spp.
B7 was tested, and the “Observed mold growth spots” value ([1]; 6 days) was 11 spots (out of 18 inoculated) and the “Percent of mold growth relative to surfactant only control” value ([1]; 6 days) was 61%.

B8: endochitinase (SEQ ID NO: 778): endochitinase as printed in b921; probably a misprint for SEQ ID NO: 777 (protein, listed as Serratia marcescens)
chain: MSTRKAVIGYYFIPTNQINNYTETDTSVVPFPVSNITPAKAKQLTHINFSFLDINSNLECAWDPATNDAKARDVVNRLTALKAHNPSLRIMFSIGGWYYSNDLGVSHANYVNAVKTPASRAKFAQSCVRIMKDYGFDGVDIDWEYPQAAEVDGFIAALQEIRTLLNQQTVADGRQALPYQLTIAGAGGAFFLSRYYSKLAQIVAPLDYINLMTYDLAGPWEKVTNHQAALFGDAAGPTFYNALREANLGWSWEELTRAFPSPFSLTVDAAVQQHLMMEGVPSAKIVMGVPFYGRAFKGVSGGNGGQYSSHSTPGEDPYPSTDYWLVGCEECVRDKDPRIASYRQLEQMLQGNYGYQRLWNDKTKTPYLYHAQNGLFVTYDDAESFKYKAKYIKQQQLGGVMFWHLGQDNRNGDLLAALDRYFNAADYDDSQLDMGTGLRYTGVGPGNLPIMTAPAYVPGTTYAQGALVSYQGYVWQTKWGYITSAPGSDSAWLKVGRVA
In the case of B8, the “mold growth relative to the surfactant only control” value ([1]; in vivo) is reported as 83%.
